These results are taken from publication PMC314469, “Protein Interaction Networks by Proteome Peptide Scanning” (PLoS Biology, 2004).

The target of assay [1] is T1, amphyphisin SH3 (AMPH_HUMAN), P49418.
T1 chain: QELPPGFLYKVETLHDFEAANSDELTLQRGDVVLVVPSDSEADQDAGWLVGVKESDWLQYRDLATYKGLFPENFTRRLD
Briefly: SPOT array.

The target in assay [2] is endophilin SH3 (SH3G2_HUMAN), Q99962. In words: SPOT array.

B1: O94820 840-854 (peptide)
chain: VVPVPERPPEPRAM
Take B1: the normalised SPOT signal, Boehringer light units (BLU); mean over the file's lines of this peptide in assay [1] was 15.7; in assay [2], 860.

B2: Q9BZF1 153-166 (peptide)
chain: ASEIIERPSKKDGF
On to B2, for which the normalised SPOT signal, Boehringer light units (BLU); mean over the file's lines of this peptide came to 129 in assay [1] and 0.4 in assay [2].

B3: Q96DX2 170-184 (peptide)
chain: WGLLPFRPPRPLPV
In the case of B3, the results for the normalised SPOT signal, Boehringer light units (BLU); mean over the file's lines of this peptide in assay [1] and in assay [2] were 4460 and 3620, respectively.

B4: Q9P0K9 253-266 (peptide)
chain: VTSRFKRPVNVPRD
As to B4, the normalised SPOT signal, Boehringer light units (BLU); mean over the file's lines of this peptide in assay [1] was determined as 32.8; in assay [2], 33.4.

B5: P54317 34-47 (peptide)
chain: WAGTLQRPVKLLPW
Turning to B5, the normalised SPOT signal, Boehringer light units (BLU); mean over the file's lines of this peptide in assay [1] was 109; in assay [2], 332.

B6: P42695 1464-1478 (peptide)
chain: SLSLPDKPPPQPQQ
B6: the normalised SPOT signal, Boehringer light units (BLU); mean over the file's lines of this peptide was determined as 57.9 in assay [1] and 59.6 in assay [2].

B7: O15211 317-331 (peptide)
chain: VTIRPLRPPQRARL
With B7, the values for the normalised SPOT signal, Boehringer light units (BLU); mean over the file's lines of this peptide in assay [1] and in assay [2] were 19300 and 11400, respectively.

B8: Q9NXY9 858-871 (peptide)
chain: VSHLIRRPISVNPN
On to B8, for which the normalised SPOT signal, Boehringer light units (BLU); mean over the file's lines of this peptide in assay [1] was 36.8; in assay [2], 381.

B9: Q15134 299-313 (peptide)
chain: VSYPPSKPPTYEEQ
Regarding B9, the normalised SPOT signal, Boehringer light units (BLU); mean over the file's lines of this peptide in assay [1] came to 56.5; in assay [2] it was 42.4.

B10: Q9NWD7 62-76 (peptide)
chain: VRRIPTRPPRAPRL
On to B10, for which the normalised SPOT signal, Boehringer light units (BLU); mean over the file's lines of this peptide stood at 25000 in assay [1] and 14400 in assay [2].

B11: BAC04982 161-175 (peptide)
chain: VRPPPARPPSGPGL
Turning to B11, the normalised SPOT signal, Boehringer light units (BLU); mean over the file's lines of this peptide amounted to 966 in assay [1] and 13000 in assay [2].

B12: O94991 330-344 (peptide)
chain: VYKPPLKPPKGTRQ
Consider B12, for which the results for the normalised SPOT signal, Boehringer light units (BLU); mean over the file's lines of this peptide in assay [1] and in assay [2] were 80.6 and 782, respectively.

B13: Q9UL14 222-236 (peptide)
chain: SLLSPLRPPGQRGL
As to B13, the normalised SPOT signal, Boehringer light units (BLU); mean over the file's lines of this peptide is 398 in assay [1] and 323 in assay [2].

B14: Q9Y6A1 387-400 (peptide)
chain: VVSSPPRPVRHGDM
Consider B14, for which the normalised SPOT signal, Boehringer light units (BLU); mean over the file's lines of this peptide is 2920 in assay [1] and 2050 in assay [2].

B15: Q9ULK5 218-231 (peptide)
chain: WALFFRRPKASLPR
As to B15, the normalised SPOT signal, Boehringer light units (BLU); mean over the file's lines of this peptide in assay [1] worked out at 194; in assay [2], 1700.

B16: Q9C0B8 71-85 (peptide)
chain: WGALPPRPPLLLLL
B16: the normalised SPOT signal, Boehringer light units (BLU); mean over the file's lines of this peptide came out at 42.8 in assay [1] and 3390 in assay [2].

B17: Q13545 27-40 (peptide)
chain: WGSLPARPRRPTPT
For B17, the normalised SPOT signal, Boehringer light units (BLU); mean over the file's lines of this peptide was determined as 4730 in assay [1] and 7230 in assay [2].

B18: Q96QH2 87-101 (peptide)
chain: VTDLPKKPPPPEVT
Regarding B18, the normalised SPOT signal, Boehringer light units (BLU); mean over the file's lines of this peptide in assay [1] worked out at 53; in assay [2], 58.7.

B19: Q9Y6W6 10-23 (peptide)
chain: VVVALSRPVRPQDL
For the molecule B19, the normalised SPOT signal, Boehringer light units (BLU); mean over the file's lines of this peptide amounted to 465 in assay [1] and 0 in assay [2].

B20: O94854 101-114 (peptide)
chain: WIPVLQRPSRTAAV
For B20, the normalised SPOT signal, Boehringer light units (BLU); mean over the file's lines of this peptide in assay [1] came out at 2390; in assay [2], 1300.

B21: Q96QH2 350-363 (peptide)
chain: VSVLPKRPRPAEFK
As to B21, the normalised SPOT signal, Boehringer light units (BLU); mean over the file's lines of this peptide is 54.2 in assay [1] and 5850 in assay [2].

B22: Q96JP2 954-968 (peptide)
chain: VTSKPRKPPTPPEK
For B22, the normalised SPOT signal, Boehringer light units (BLU); mean over the file's lines of this peptide came out at 157 in assay [1] and 1560 in assay [2].

B23: P50548 338-351 (peptide)
chain: VVPQPQRPDKSPLP
Take B23: the normalised SPOT signal, Boehringer light units (BLU); mean over the file's lines of this peptide is 64.7 in assay [1] and 279 in assay [2].

B24: Q9UKN7 887-900 (peptide)
chain: VRLPFHRPPRAGAW
Take B24: the normalised SPOT signal, Boehringer light units (BLU); mean over the file's lines of this peptide in assay [1] stood at 2830; in assay [2], 455.

B25: Q96JM3 305-318 (peptide)
chain: VSPEPRRPAPAVSP
With B25, the normalised SPOT signal, Boehringer light units (BLU); mean over the file's lines of this peptide amounted to 233 in assay [1] and 10.4 in assay [2].

B26: Q9H4N5 254-267 (peptide)
chain: VTLLIYRPERNTKL
With B26, the normalised SPOT signal, Boehringer light units (BLU); mean over the file's lines of this peptide stood at 362 in assay [1] and 28.7 in assay [2].

B27: Q04206 268-281 (peptide)
chain: VSMQLRRPSDRELS
With B27, the normalised SPOT signal, Boehringer light units (BLU); mean over the file's lines of this peptide amounted to 44.8 in assay [1] and 642 in assay [2].

B28: O00255 515-529 (peptide)
chain: VSGPPRKPPGTVAG
On to B28, for which the results for the normalised SPOT signal, Boehringer light units (BLU); mean over the file's lines of this peptide in assay [1] and in assay [2] were 61.2 and 63.4, respectively.

B29: Q9HCY0 1434-1447 (peptide)
chain: VRSRFKRPKPNLAR
Take B29: the normalised SPOT signal, Boehringer light units (BLU); mean over the file's lines of this peptide amounted to 37 in assay [1] and 43.1 in assay [2].

B30: O14782 762-776 (peptide)
chain: WSQSPQRPPPSTTH
Consider B30, for which the normalised SPOT signal, Boehringer light units (BLU); mean over the file's lines of this peptide in assay [1] stood at 73.9; in assay [2], 557.

B31: Q96QH2 111-125 (peptide)
chain: VTDLPKKPPPPEAT
Turning to B31, the normalised SPOT signal, Boehringer light units (BLU); mean over the file's lines of this peptide worked out at 51.8 in assay [1] and 58 in assay [2].

B32: Q96SN6 144-157 (peptide)
chain: VVELPRRPAPPAAV
Regarding B32, the normalised SPOT signal, Boehringer light units (BLU); mean over the file's lines of this peptide is 35.8 in assay [1] and 60.5 in assay [2].

B33: Q92794 305-318 (peptide)
chain: WISQISRPRKKGRK
With B33, the normalised SPOT signal, Boehringer light units (BLU); mean over the file's lines of this peptide in assay [1] was determined as 190; in assay [2], 452.

B34: Q9BSQ9 205-218 (peptide)
chain: VSAALRRPGPSLVL
As for B34, the figures for the normalised SPOT signal, Boehringer light units (BLU); mean over the file's lines of this peptide in assay [1] and in assay [2] were 34 and 0, respectively.

B35: Q9NV38 6-19 (peptide)
chain: SLLRPWRPLRARGS
As for B35, the normalised SPOT signal, Boehringer light units (BLU); mean over the file's lines of this peptide in assay [1] was found to be 6960; in assay [2] it was 2400.

B36: P10915 314-327 (peptide)
chain: VRYPISRPRRRSSP
As for B36, the normalised SPOT signal, Boehringer light units (BLU); mean over the file's lines of this peptide amounted to 883 in assay [1] and 961 in assay [2].

B37: AAH30267 1118-1132 (peptide)
chain: VYTPPPRPPPPWGS
In the case of B37, the values for the normalised SPOT signal, Boehringer light units (BLU); mean over the file's lines of this peptide in assay [1] and in assay [2] were 180 and 4170, respectively.

B38: Q9NRJ4 1023-1037 (peptide)
chain: VTQLPARPPPALYT
For the molecule B38, the normalised SPOT signal, Boehringer light units (BLU); mean over the file's lines of this peptide in assay [1] is 39.1; in assay [2] it was 1400.
